T1: cynomolgus CD137 expressed on DO11.10 cells (DO11.10-cCD137) (cynomolgus monkey, UniProt Q07011 24-255 (human entry))
T1 chain: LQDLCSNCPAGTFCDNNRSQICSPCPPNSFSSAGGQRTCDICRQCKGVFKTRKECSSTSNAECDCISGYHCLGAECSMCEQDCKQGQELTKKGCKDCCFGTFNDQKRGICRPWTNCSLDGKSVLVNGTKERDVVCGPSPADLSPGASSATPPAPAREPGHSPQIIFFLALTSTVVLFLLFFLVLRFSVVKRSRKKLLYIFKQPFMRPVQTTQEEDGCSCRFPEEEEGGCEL

T2: cOX40-mFc (cynomolgus)
T2 construct: Dimeric; also called cyno OX40-mFc
T2 chain: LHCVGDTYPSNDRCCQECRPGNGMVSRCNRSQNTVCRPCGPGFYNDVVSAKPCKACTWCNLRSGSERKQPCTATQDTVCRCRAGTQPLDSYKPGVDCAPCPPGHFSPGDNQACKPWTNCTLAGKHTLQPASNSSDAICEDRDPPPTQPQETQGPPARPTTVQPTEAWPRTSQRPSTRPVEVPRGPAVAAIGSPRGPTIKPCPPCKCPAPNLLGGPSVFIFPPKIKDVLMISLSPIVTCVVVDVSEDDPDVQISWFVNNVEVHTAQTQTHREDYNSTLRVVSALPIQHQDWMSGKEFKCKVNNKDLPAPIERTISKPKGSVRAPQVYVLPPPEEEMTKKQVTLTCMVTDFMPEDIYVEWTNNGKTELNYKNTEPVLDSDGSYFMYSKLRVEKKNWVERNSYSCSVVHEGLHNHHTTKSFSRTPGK

T3: hOX40-mFc (human)
T3 construct: Dimeric; also called human OX40-mFc
T3 chain: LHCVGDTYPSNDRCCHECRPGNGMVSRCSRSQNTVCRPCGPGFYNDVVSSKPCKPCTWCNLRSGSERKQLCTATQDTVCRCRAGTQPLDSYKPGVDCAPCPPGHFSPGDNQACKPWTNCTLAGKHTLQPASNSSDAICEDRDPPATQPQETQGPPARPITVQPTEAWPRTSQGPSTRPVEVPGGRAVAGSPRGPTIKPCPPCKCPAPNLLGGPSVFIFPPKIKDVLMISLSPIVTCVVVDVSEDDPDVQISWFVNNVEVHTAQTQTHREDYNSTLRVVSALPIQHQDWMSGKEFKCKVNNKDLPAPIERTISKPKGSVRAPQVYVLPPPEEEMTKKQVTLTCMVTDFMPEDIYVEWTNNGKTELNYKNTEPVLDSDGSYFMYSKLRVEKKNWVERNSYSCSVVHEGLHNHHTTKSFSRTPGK

T4: human OX40 expressed on DO11.10 cells (DO11.10-hOX40) (human, UniProt P43489 29-277)
T4 construct: Also used here for OX40 on primary human T cells in the functional rows; also called human OX40 receptor; OX40 on human T cells
T4 sequence: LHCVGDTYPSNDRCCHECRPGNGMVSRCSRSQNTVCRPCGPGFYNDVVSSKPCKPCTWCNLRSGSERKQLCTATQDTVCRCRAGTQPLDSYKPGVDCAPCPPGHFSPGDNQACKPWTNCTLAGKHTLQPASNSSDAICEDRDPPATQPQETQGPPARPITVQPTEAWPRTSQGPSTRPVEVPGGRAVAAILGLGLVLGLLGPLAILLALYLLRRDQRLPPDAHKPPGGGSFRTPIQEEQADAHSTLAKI

T5: cynomolgus OX40 expressed on DO11.10 cells (DO11.10-cOX40) (cynomolgus, UniProt P43489 29-277 (human entry))
T5 chain: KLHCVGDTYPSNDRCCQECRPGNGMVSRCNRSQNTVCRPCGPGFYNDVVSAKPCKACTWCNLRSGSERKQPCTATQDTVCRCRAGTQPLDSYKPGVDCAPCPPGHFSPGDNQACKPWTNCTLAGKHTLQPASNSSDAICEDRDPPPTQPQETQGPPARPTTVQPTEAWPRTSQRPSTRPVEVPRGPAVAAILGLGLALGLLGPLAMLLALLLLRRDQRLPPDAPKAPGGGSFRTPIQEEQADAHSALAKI

T6: cCD137-mFc-Avi (cynomolgus monkey)
T6 construct: 139 used; also called cyno CD137-mFc-Avi; recombinant cyno CD137
T6 chain: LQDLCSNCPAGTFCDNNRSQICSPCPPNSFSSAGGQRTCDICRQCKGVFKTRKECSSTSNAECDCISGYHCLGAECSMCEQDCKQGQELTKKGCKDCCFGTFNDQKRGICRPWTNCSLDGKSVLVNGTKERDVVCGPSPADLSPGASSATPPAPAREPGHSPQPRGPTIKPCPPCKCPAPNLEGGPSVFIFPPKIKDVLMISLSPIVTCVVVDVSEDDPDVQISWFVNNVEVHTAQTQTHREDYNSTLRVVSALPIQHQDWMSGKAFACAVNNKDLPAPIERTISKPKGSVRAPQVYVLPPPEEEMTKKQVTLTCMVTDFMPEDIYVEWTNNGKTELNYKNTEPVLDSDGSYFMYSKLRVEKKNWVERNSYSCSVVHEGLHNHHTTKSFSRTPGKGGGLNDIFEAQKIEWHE


Experiments:
[1] = molecular target: T7, human CD137 expressed on DO11.10 cells (DO11.10-hCD137) (human, UniProt Q07011 24-255); test: flow cytometry on DO11.10 cells expressing the target
T7 construct: also called CD137 on human T cells
Protocol: (§1) 50 μl of the antibody dilutions were added to the wells containing cells (final volume 100 μl) and incubated at 4° C. for 1 hour. […] The plates were washed and resuspended in 100 μl of PBS containing DAPI (Biotium, cat no 40043) at 1 μg/ml. The plates were analysed using a Canto II flow cytometer (BD Bioscience) and the data analysed using FlowJo. Dead cells were identified by their higher fluorescence on the UV (405 nm/450/50) channel and excluded from analysis. […] The GMFI data was fit using log (agonist) vs response (three parameters) in Graph Pad Prism Software to generate EC₅₀ values.

[2] = molecular target: T1, cynomolgus CD137 expressed on DO11.10 …; test: as above
Protocol: as §1

cOX40-mFc = molecular target: T2, cOX40-mFc; test: SPR, antibody captured via anti-human Fab, dimeric antigen flowed, 1:1 fit
Protocol: (§2) For OX40 affinity determination a Biacore CM5 chip was coated with anti-human Fab using a Human Fab Capture Kit (GE Healthcare 28958325) according to manufacturer's conditions, to a surface density of approximately 8000 RU. […] The association time was 2 min and the dissociation time was 8 min. Running buffer was HBS-EP. Flow cells were regenerated by injecting glycine-HCl at pH 2.1 at a flow rate of 30 μl/min for 30 seconds.
(§3) The binding kinetics were fit with a 1:1 Langmuir model to generate binding association (kₐ) and dissociation (kd) rates. Equilibrium binding constants (KD) were calculated by dividing the dissociation rate by the association rate for each sample. Data analysis was performed with BiaEvaluation software version 3.2.

hOX40-mFc = molecular target: T3, hOX40-mFc; test: as above
Protocol: as §2, §3

[3] = molecular target: T7, human CD137 expressed on DO11.10 cells …; test: cell-based or functional assay
Target sequence in this assay (Q07011 24-255): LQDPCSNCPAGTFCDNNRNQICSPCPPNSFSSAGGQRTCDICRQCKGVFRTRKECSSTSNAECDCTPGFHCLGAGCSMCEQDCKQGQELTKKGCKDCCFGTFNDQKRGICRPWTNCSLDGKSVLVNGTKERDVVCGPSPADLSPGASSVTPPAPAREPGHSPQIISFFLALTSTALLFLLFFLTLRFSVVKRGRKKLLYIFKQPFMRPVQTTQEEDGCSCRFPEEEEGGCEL

[4] = molecular target: T4, human OX40 expressed on DO11.10 cells …; test: flow cytometry on DO11.10 cells expressing the target
Protocol: as §1

[5] = molecular target: T5, cynomolgus OX40 expressed on DO11.10 …; test: as above
Protocol: as §1

hCD137-mFc-Avi = molecular target: T8, hCD137-mFc-Avi (human); test: SPR, antibody captured via anti-human Fc, dimeric antigen flowed, 1:1 fit
T8 construct: Dimer; a biotinylated version was used where the text says so; also called human CD137-mFc-Avi; hCD137-mFc-Avi-Bio
Protocol: (§4) For CD137 affinity determination, a Biacore CM5 chip (GE Healthcare) was coated with anti-human Fc using a Human Antibody Capture Kit (GE Healthcare) according to manufacturer's conditions, to a surface density of approximately 4000 RU. […] Human or cynomolgus CD137 (hCD137-mFc-Avi or cCD137-mFc-Avi) was flowed over at a range of concentrations in a three-fold dilution series starting at 200 nM, at a flow rate of 70 μl/min. The association time was 2 min and the dissociation time was 8 min. Running buffer was HBS-EP (GE Healthcare BR100188). Flow cells were regenerated by injecting 3M magnesium chloride at a flow rate of 30 μl/min for 30 seconds.
as §3

cCD137-mFc-Avi = molecular target: T6, cCD137-mFc-Avi; test: as above
Protocol: as §4, §3

[6] = molecular target: T4, human OX40 expressed on DO11.10 cells …; test: cell-based or functional assay

| Binder | binding result [1] | binding result [2] | Kd (cOX40-mFc) | Kd (hOX40-mFc) | EC50 of mIL-2 release, DO11.10-hCD137 assay, crosslinked [3] | Emax of mIL-2 release, DO11.10-hCD137 assay, crosslinked [3] | EC50 [1] | EC50 [2] | EC50 [4] | EC50 [5] | Kd (hCD137-mFc-Avi) | Kd (cCD137-mFc-Avi) | SEA assay (PBMC), hIL-2 max response, crosslinked [6] | SEA assay (PBMC), hIL-2 max response, no crosslinker [6] | SEA assay (PBMC), hIL-2 release EC50, crosslinked [6] | SEA assay (PBMC), hIL-2 release EC50, no crosslinker [6] |
| --- | --- | --- | --- | --- | --- | --- | --- | --- | --- | --- | --- | --- | --- | --- | --- | --- |
| FS20-22-49AA/4420 (antibody, human IgG1, kappa, L234A L235A, also called OX40/FITC mock mAb^2; FS20-22-49 Fcab in mock (4420 LALA) mAb^2 format) heavy: EVKLDETGGGLVQPGRPMKLSCVASGFTFSDYWMNWVRQSPEKGLEWVAQIRNKPYNYETYYSDSVKGRFTISRDDSKSSVYLQMNNLRVEDMGIYYCTGSYYGMDYWGQGTSVTVSSASTKGPSVFPLAPSSKSTSGGTAALGCLVKDYFPEPVTVSWNSGALTSGVHTFPAVLQSSGLYSLSSVVTVPSSSLGTQTYICNVNHKPSNTKVDKKVEPKSCDKTHTCPPCPAPEAAGGPSVFLFPPKPKDTLMISRTPEVTCVVVDVSHEDPEVKFNWYVDGVEVHNAKTKPREEQYNSTYRVVSVLTVLHQDWLNGKEYKCKVSNKALPAPIEKTISKAKGQPREPQVYTLPPSRDEYWDQEVSLTCLVKGFYPSDIAVEWESNGDEQFAYKTTPPVLDSDGSFFLYSKLTVDQYRWNPADYFSCSVMHEALHNHYTQKSLSLSPG light: DVVMTQTPLSLPVSLGDQASISCRSSQSLVHSNGNTYLRWYLQKPGQSPKVLIYKVSNRFSGVPDRFSGSGSGTDFTLKISRVEAEDLGVYFCSQSTHVPWTFGGGTKLEIKRTVAAPSVFIFPPSDEQLKSGTASVVCLLNNFYPREAKVQWKVDNALQSGNSQESVTEQDSKDSTYSLSSTLTLSKADYEKHKVYACEVTHQGLSSPVTKSFNRGEC | no binding | no binding | – | – | – | – | – | – | – | – | – | – | – | – | – | – |
| FS20-22-49AA/FS30-10-3 (bispecific antibody, human IgG1, kappa, L234A L235A, V domains shown, IgG1 with LALA; also called OX40/CD137 mAb^2) VH: EVQLLESGGGLVQPGGSLRLSCAASGFTFSSYDMSWVRQAPGKGLEWVSDIDPTGSKTDYADSVKGRFTISRDNSKNTLYLQMNSLRAEDTAVYYCARDLNVYGFDYWGQGTLVTVSS VL: EIVLTQSPGTLSLSPGERATLSCRASQSVSSSYLAWYQQKPGQAPRLLIYGASSRATGIPDRFSGSGSGTDFTLTISRLEPEDFAVYYCQQSYSYPVTFGQGTKVEIKR | – | – | 1110 pM | 285 pM | 6100 pM | 17000 pg/mL | 120 pM | 68.2 pM | 175 pM | 394 pM | 342 pM | 318 pM | 33900 pg/mL | 34900 pg/mL | 380 pM | 290 pM |
| FS20-22-49AA/FS30-10-12 (bispecific antibody, human IgG1, kappa, L234A L235A, V domains shown, IgG1 with LALA; also called OX40/CD137 mAb^2) VH: EVQLLESGGGLVQPGGSLRLSCAASGFTFSSYDMSWVRQAPGKGLEWVSDIDPTGSKTDYADSVKGRFTISRDNSKNTLYLQMNSLRAEDTAVYYCARDLTVYGFDYWGQGTLVTVSS VL: EIVLTQSPGTLSLSPGERATLSCRASQSVSSSYLAWYQQKPGQAPRLLIYGASSRATGIPDRFSGSGSGTDFTLTISRLEPEDFAVYYCQQSYSYPVTFGQGTKVEIKR | – | – | 1020 pM | 370 pM | 9500 pM | 17200 pg/mL | 290 pM | 107 pM | 152 pM | 368 pM | 255 pM | 7240 pM | 23700 pg/mL | 24900 pg/mL | 2330 pM | 1360 pM |
| FS20-22-49AA/FS30-5-37 (bispecific antibody, human IgG1, kappa, L234A L235A, V domains shown, IgG1 with LALA; also called OX40/CD137 mAb^2) VH: EVQLLESGGGLVQPGGSLRLNCAASGFTFSSYAMSWVRQAPGKGLEWVSAISGSGGSTYYADSVKGRFTISRDNSKNTLYLQMNSLRAEDTAVYYCARSYDKYWGSSIYSGLDYWGQGTLVTVSS VL: EIVLTQSPGTLSLSPGERATLSCRASQSVSSSYLAWYQQKPGQAPRLLIYGASSRATGIPDRFSGSGSGTDFTLTISRLEPEDFAVYYCQQYYSYYPVTFGQGTKVEIKR | – | – | 1630 pM | 385 pM | 13400 pM | 18100 pg/mL | 258 pM | 110 pM | 201 pM | 355 pM | 3850 pM | 6420 pM | 30700 pg/mL | 29200 pg/mL | 500 pM | 510 pM |

Source: US20220048996A1 (F STAR BETA, published 2022)
